Where two headings read alike, the source gives them in different places.
T1: human CD25 on CHO-K1/hCD25 cells (human, UniProt P01589 22-272)
T1 construct: whole, on cells; The construct of the cell line is not described
T1 sequence (looked up): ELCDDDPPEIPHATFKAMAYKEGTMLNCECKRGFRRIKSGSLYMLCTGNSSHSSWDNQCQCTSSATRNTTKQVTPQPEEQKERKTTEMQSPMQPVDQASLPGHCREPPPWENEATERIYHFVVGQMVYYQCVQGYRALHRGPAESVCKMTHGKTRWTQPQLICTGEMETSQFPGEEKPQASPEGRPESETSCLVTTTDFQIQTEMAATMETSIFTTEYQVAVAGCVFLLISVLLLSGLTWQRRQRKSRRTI

T2: CD25 on CD4+CD25+ Treg cells isolated from human PBMCs (human, UniProt P01589 22-272)
T2 sequence (looked up): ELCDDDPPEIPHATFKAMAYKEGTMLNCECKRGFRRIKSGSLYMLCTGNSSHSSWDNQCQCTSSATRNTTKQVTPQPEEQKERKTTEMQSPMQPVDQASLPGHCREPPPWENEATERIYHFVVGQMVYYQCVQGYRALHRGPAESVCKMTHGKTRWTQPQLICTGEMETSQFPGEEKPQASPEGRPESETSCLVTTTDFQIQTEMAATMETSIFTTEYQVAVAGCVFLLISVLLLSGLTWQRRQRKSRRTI

T3: Mouse CD25-his (UniProtKB-P01590, Met1-Lys213) (mouse, UniProt P01590 22-213)
T3 construct: range 1-213; Range begins at Met1 (includes the signal peptide); not shown: his tag
T3 sequence (looked up): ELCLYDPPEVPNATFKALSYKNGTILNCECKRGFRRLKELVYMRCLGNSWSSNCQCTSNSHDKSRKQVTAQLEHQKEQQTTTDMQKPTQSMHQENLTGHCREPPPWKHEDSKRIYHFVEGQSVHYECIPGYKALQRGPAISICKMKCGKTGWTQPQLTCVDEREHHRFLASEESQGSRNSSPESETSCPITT

T4: human CD25 (NP_000408.1) (Met 1-Cys 213) C-terminally fused with 6-histidine tag (human, UniProt P01589 22-213)
T4 construct: range 1-213; Expressed in CHO-K1 cells; also called human CD25-his
T4 sequence: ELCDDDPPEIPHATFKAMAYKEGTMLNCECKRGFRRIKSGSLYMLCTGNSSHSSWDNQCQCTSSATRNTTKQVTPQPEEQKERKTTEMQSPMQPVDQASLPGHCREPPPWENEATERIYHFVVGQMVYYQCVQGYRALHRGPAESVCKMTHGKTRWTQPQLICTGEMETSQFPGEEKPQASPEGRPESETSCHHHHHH


Assays:
[1] = biological target: T1, human CD25 on CHO-K1/hCD25 cells; assay: flow cytometry on CHO-K1/hCD25 cells
[2] = biological target: T5, cyno CD25-his (NCBI-H6WS54, Met1-Arg213) (cyno); assay: ELISA, cyno CD25-his coated
T5 construct: range 1-213; Range begins at Met1 (includes the signal peptide)

[3] = biological target: T2, CD25 on CD4+CD25+ Treg cells isolated …; assay: cell-based or functional assay
[4] = biological target: T3, Mouse CD25-his (UniProtKB-P01590, …); assay: ELISA, mouse CD25-his coated
[5] = biological target: T4, human CD25 (NP_000408.1) (Met 1-Cys …); assay: ELISA, human CD25-his coated
[6] = biological target: T4, human CD25 (NP_000408.1) (Met 1-Cys …); assay: SPR (BIAcore X100), human CD25-his captured by anti-histidine antibody, antibody as analyte, 1:1 model
[7] = biological target: T2, CD25 on CD4+CD25+ Treg cells isolated …; assay: cell-based or functional assay; remark: listed apart in the source
[8] = biological target: T4, human CD25 (NP_000408.1) (Met 1-Cys …); assay: SPR (BIAcore X100), human CD25-his captured by anti-histidine antibody, antibody as analyte, 1:1 model; remark: listed apart in the source

| Binder | EC50 [1] [µg/mL] | Relative activity (%) compared with 686 [1] [%] | EC50 [2] [µg/mL] | EC50, killing Tregs in vitro (ADCC reporter, jurkat/CD16a/NFAT-luc) [3] [µg/mL] | Relative activity (%) compared with 686, killing Tregs in vitro [3] [%] | binding result [4] | EC50 [5] [µg/mL] | Relative activity (%) compared with 686 [5] [%] | Kd [6] [nM] | koff [6] [s⁻¹] | kon [6] [M⁻¹ s⁻¹] | EC50, killing Tregs in vitro (ADCC reporter, jurkat/CD16a/NFAT-luc) [7] [µg/mL] | Kd [8] [nM] | koff [8] [s⁻¹] | kon [8] [M⁻¹ s⁻¹] |
| --- | --- | --- | --- | --- | --- | --- | --- | --- | --- | --- | --- | --- | --- | --- | --- |
| chimeric antibody 2046-36H2L1 (antibody, human IgG1, kappa, V domains shown, Chimeric, human IgG1/kappa; also called 2046-36ix) VH: QIQLVQSGPELKKPGETVRISCKASGYTFTTAGMQWVQKMPGKGLKWIGWINTHSGVPKYAEDFKGRFAFSLETSASTAYLQISNLKNEDTATYFCASDYAFGYWGQGTLVTVSA VL: not shown | 0.00167 | 73.3 | 0.0549 | 52.4 | 248 | no binding (tested: starting at 100 ng/mL) | 0.103 | 101 | 2.45 | 0.00933 | 3.8e+06 | – | – | – | – |
| humanized antibody 2046-18H1L1-m2 (antibody, human IgG1, kappa, V domains shown) VH: EVQLQESGPGLVKPSQTLSLTCTVSGYSITSDYAWNWIRQPPGKGLEWIGYISYSGITIYNPSLKSRVTISRDTSKNQFSLKLSSVTAADTAVYYCARWLLQIYYAMDYWGQGTLVTVSS VL: EIVLTQSPGTLSLSPGERATLSCSSSQSLVHSNGNTYLHWYQQKPGQAPRLLIYKVSNRFSGIPDRFSGSGSGTDFTLTISRLEPEDFAVYYCSQSTHVPLTFGQGTKLEIKR | – | – | – | – | – | – | – | – | – | – | – | 82.6 | 2.45 | 0.00137 | 560000 |

From patent EP4386000A1 (Nanjing Novoacine Bio-Technology Co., Ltd., dated 2024)
